According to IntAct's records for PubMed 16388599:

B1: Tyrosine-protein phosphatase non-receptor type 1 (Homo sapiens), P18031 (parent)
chain: MEMEKEFEQIDKSGSWAAIYQDIRHEASDFPCRVAKLPKNKNRNRYRDVSPFDHSRIKLHQEDNDYINASLIKMEEAQRSYILTQGPLPNTCGHFWEMVWEQKSRGVVMLNRVMEKGSLKCAQYWPQKEEKEMIFEDTNLKLTLISEDIKSYYTVRQLELENLTTQETREILHFHYTTWPDFGVPESPASFLNFLFKVRESGSLSPEHGPVVVHCSAGIGRSGTFCLADTCLLLMDKRKDPSSVDIKKVLLEMRKFRMGLIQTADQLRFSYLAVIEGAKFIMGDSSVQDQWKELSHEDLEPPPEHIPPPPRPPKRILEPHNGKCREFFPNHQWVKEETQEDKDCPIKEEKGSPLNAAPYGIESMSQDTEVRSRVVGGSLRGAQAASPAKGEPSLPEKDEDHALSYWKPFLVNMCVATVLTAGAYLCYRFLFNSNT

Variants of: B1
Conditions: with cav1_human CAV1, Q03135
Chain of cav1_human CAV1, Q03135 (Q03135 whole entry): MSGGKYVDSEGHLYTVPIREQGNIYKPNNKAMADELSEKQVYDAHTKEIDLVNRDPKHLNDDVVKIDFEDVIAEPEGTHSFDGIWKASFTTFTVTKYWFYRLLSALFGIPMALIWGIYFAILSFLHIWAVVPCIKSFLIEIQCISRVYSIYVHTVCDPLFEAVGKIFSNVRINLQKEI

Variant | effect of a mutation on the interaction
D181A | disrupting interaction
